Assay results: patent US20050026839A1 (GENERAL HOSPITAL, published 2005)
Like-named read-outs stand apart in the source and are kept apart here. Square brackets hold non-standard residues; d marks the D form. Ends that are not written are not given here. hArg = N=C(N)NCCCC[C@H](N)C(=O)O; Nle = CCCC[C@H](N)C(=O)O; Aib = CC(C)(N)C(=O)O

T1: wild-type human PTH/PTHrP receptor (hP1R-WT) (human, UniProt Q03431 27-593)
T1 construct: whole, on cells; HKRK-B28 cells express ~280,000 receptors per cell; also called PTH-1 receptor; PTH-1R
T1 sequence (looked up): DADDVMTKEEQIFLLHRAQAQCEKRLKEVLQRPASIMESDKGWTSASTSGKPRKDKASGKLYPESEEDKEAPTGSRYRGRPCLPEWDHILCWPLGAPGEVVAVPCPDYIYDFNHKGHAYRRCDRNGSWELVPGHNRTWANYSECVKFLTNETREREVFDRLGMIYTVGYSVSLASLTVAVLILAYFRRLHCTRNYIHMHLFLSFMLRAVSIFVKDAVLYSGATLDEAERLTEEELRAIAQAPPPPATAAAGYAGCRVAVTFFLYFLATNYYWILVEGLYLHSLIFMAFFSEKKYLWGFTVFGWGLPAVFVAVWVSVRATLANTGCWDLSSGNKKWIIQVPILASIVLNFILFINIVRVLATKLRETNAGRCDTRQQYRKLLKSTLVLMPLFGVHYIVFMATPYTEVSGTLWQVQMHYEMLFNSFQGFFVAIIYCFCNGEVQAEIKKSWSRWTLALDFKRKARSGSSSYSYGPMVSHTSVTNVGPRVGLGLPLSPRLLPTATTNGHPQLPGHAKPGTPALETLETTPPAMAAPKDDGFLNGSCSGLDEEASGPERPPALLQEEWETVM

T2: truncated human P1R deleted for residues (24-181) (hP1R-delNt) (human, UniProt Q03431 182-593)
T2 sequence (looked up): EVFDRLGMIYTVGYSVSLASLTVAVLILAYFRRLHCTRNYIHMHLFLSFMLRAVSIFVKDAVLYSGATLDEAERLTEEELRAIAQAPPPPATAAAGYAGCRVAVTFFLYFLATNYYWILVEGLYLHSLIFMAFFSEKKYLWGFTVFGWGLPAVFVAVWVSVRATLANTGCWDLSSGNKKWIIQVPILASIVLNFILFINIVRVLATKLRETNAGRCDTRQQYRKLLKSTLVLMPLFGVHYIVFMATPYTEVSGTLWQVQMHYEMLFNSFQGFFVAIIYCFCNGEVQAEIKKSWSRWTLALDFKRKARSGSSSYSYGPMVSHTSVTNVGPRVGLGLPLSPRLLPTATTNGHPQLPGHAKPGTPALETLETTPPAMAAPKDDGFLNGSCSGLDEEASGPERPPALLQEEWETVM


How the values were obtained:
[1] = target: T1, wild-type human PTH/PTHrP receptor …; test: competition binding, 125I-[M]PTH(1-21) tracer, HKRK-B28 cells, 4 h at 4 C
Procedure, shortened: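 Cells are incubated with about 26 fmol ¹²⁵I-[M]PTH(1-21) tracer and unlabeled competitor in 300 μL for 4 h at 4 °C, then washed, lysed and counted. Nonspecific binding is defined with 1 μM of the same unlabeled peptide. IC50 values come from nonlinear regression, and the peptides are rat-PTH-based and C-terminally amidated.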

[2] = target: T1, wild-type human PTH/PTHrP receptor …; test: cell-based or functional assay
[3] = target: T2, truncated human P1R deleted for …; test: cell-based or functional assay
[4] = target: T2, truncated human P1R deleted for …; test: competition binding, 125I-[Aib1,3,M]PTH(1-21) tracer, COS-7 cells expressing hP1R-delNt
Protocol: Stock solutions of EGTA/trypsin and antibiotics were from GIBCO; fetal bovine serum was from Hyclone Laboratories (Logan, Utah). […] All cells, in 24-well plates, were treated with fresh media and shifted to 33° C. for 12 to 24 h prior to assay.
Competition Binding. Binding reactions were performed with HKRK-B28 cells or in COS-7 cells in 24-well plates. The cells were rinsed with 0.5 mL of binding buffer, and then treated successively with 100 μL binding buffer, 100 μL of binding buffer containing various amounts of unlabeled competitor ligand, and 100 μL of binding buffer containing ca. 100,000 cpm of ¹²⁵I-[M]PTH(1-21) or ¹²⁵I-[Aib^{1,3},M]PTH(1-21)} (ca. 26 fmol; final volume=300 μL). Incubations were 4 to 6 h at 4° C., at which time near equilibrium conditions were attained. Cells were then placed on ice, the binding medium was removed, and the monolayer was rinsed three times with 0.5 mL of cold binding buffer. The cells were subsequently lysed with 0.5 mL […] NaOH and counted for radioactivity. For each tracer and in each experiment, the non-specific binding was determined as the radioactivity that bound in the presence of the same unlabeled peptide at a concentration of 1 μM, and was ˜1% of total radioactivity added for each tracer. The maximum specific binding (B₀) was the total radioactivity bound in the absence of competing ligand, corrected for nonspecific binding, and for each tracer, ranged from 8% to 20% of the total radioactivity added. Nonlinear regression was used to calculate binding IC₅₀ values (see below). Scatchard transformations of homologous competition binding data derived from studies with 26 fmol of ¹²⁵I-[Aib^{1,3},M]PTH(1-21) were employed for estimations of apparent equilibrium dissociation constant (kDapps) and total number of ligand binding sites (Bₘₐₓ), assuming a single class of binding sites and equal affinities of the iodinated and non iodinated ligand.

[5] = target: T1, wild-type human PTH/PTHrP receptor …; test: cell-based or functional assay; remark: listed apart in the source

| Binder | IC50 [1] [nM] | PLC EC50 [2] [nM] | PLC EMAX(obs.) [2] [foldxbasal] | cAMP EC50 [2] [nM] | cAMP EMax(obs.) [2] [pmole/well] | PLC EC50 [3] [nM] | PLC EMAX(obs.) [3] [foldxbasal] | cAMP EC50 [3] [nM] | cAMP EMax(obs.) [3] [pmole/well] | IC50 [4] [nM] | cAMP EC50 [5] [nM] | cAMP EMax(obs.) [5] [pmole/well] |
| --- | --- | --- | --- | --- | --- | --- | --- | --- | --- | --- | --- | --- |
| [Aib]V[Aib]EIQLMHQ[hArg]AKW-NH2 (N-terminus assumed; SMILES CC[C@H](C)[C@H](NC(=O)[C@H](CCC(=O)O)NC(=O)C(C)(C)NC(=O)[C@@H](NC(=O)C(C)(C)N)C(C)C)C(=O)N[C@@H](CCC(N)=O)C(=O)N[C@@H](CC(C)C)C(=O)N[C@@H](CCSC)C(=O)N[C@@H](Cc1c[nH]cn1)C(=O)N[C@@H](CCC(N)=O)C(=O)N[C@@H](CCCCNC(=N)N)C(=O)N[C@@H](C)C(=O)N[C@@H](CCCCN)C(=O)N[C@@H](Cc1c[nH]c2ccccc12)C(N)=O, also called 671 [Aib^1,3, M]PTH (1-14); 671 [Aib^1,3M]PTH(1-14)) [[Aib^1,3,M]PTH(1-14)] | 130 | 71 | 4.3 | 1.2 | 240 | 130 | 3.1 | 0.73 | 250 | 1600 | 1.1 | 278 |
| [Aib]V[Aib]EIQL[Nle]HQ[hArg]AKWLASVRRY-NH2 (N-terminus assumed; SMILES CCCC[C@H](NC(=O)[C@H](CC(C)C)NC(=O)[C@H](CCC(N)=O)NC(=O)[C@@H](NC(=O)[C@H](CCC(=O)O)NC(=O)C(C)(C)NC(=O)[C@@H](NC(=O)C(C)(C)N)C(C)C)[C@@H](C)CC)C(=O)N[C@@H](Cc1c[nH]cn1)C(=O)N[C@@H](CCC(N)=O)C(=O)N[C@@H](CCCCNC(=N)N)C(=O)N[C@@H](C)C(=O)N[C@@H](CCCCN)C(=O)N[C@@H](Cc1c[nH]c2ccccc12)C(=O)N[C@@H](CC(C)C)C(=O)N[C@@H](C)C(=O)N[C@@H](CO)C(=O)N[C@H](C(=O)N[C@@H](CCCNC(=N)N)C(=O)N[C@@H](CCCNC(=N)N)C(=O)N[C@@H](Cc1ccc(O)cc1)C(N)=O)C(C)C, unlabeled peptide; also called 674 [Aib^1,3, M]PTH (1-21); 674 [Aib^1,3M]PTH(1-21)) [[Aib^1,3,M]PTH(1-21)] | 31 | – | – | 0.8 | 300 | – | – | 0.38 | 240 | 27 | 4.3 | 284 |
